Measurements published in patent US12605469B2, “Tumor specific antibody conjugates and uses therefor” (The University of North Carolina at Charlotte, priority 2019, dated 2026).

Legend:
KCM lysate = target: T1, KCM lysate (Homo sapiens, UniProt P15941); experiment: sandwich ELISA of humanized TAB004 antibodies on KCM lysate; format: binding, mouse; details: compared with chimeric parental antibody
T1 construct: expressed in transfected cells; host or cells: KCM, a primary mouse pancreatic adenocarcinoma line from P48-Cre x LSL-Kras G12D x human MUC1.Tg mice; whole-cell lysate at 10 ug/mL
Method: Antigen binding (KCM lysate) to the 9 humanized antibody combinations and the chimeric parental antibody were evaluated by sandwich ELISA. For this, ELISA plates were coated with hybridoma antibody (1 μg/mL) overnight at 4° C. in the dark and then blocked with 2% BSA for 2 hours at room temperature to reduce non-specific binding. KCM lysate (10 μg/mL) was then added and incubated for 2 hours at room temperature. Antibodies were diluted in 5-fold increments for a total of seven data points and were added to the ELISA wells for 2 hours at room temperature. The plate was washed with PBS three times, and then incubated with HRP conjugated goat anti-human IgG antibody for 2 hours. The plate was washed three times with PBS. TMB, the HRP substrate, was added to each well for color development for 5 minutes at room temperature. Equal amount of 1N HC1 stop solution was added to each well to terminate the reaction.

KCM tumor cells = experiment: NK cell specific lysis of tumor cells; format: cell-based, mouse; details: various E:T ratios
Text: FIGS. 4A and 4B are graphs showing that an exemplary antibody of the presently disclosed subject matter (TAB-004) enhanced the cytotoxicity of Natural Killer (NK) cells to kill target tumor cells.
(§1) The TAB-004 antibody alone or conjugated to CpG ODN bound to a tumor cell line (referred to herein as the “KCM” cell line; see FIG. 3) generated from the triple transgenic PDA.MUC1.Tg mice.

KCM pancreatic cell line = experiment: binding to KCM pancreatic cell line; format: cell-based, mouse
Text: FIG. 3 is a schematic (upper left panel) showing an approach for creating a triple transgenic mouse line that expresses the Cre recombinase throughout the pancreas, a mutated K-ras oncogene polypeptide, and a human MUC1 polypeptide. This mouse develops pancreatic adenocarcinoma, cells of which were used to generate the primary tumor cell line KCM (lower panel). The KCM cell line was used to test the binding of an exemplary antibody of the presently disclosed subject matter (denoted in the Figure as “TAB” and in the instant disclosure as “TAB-004”) either alone or conjugated to CpG oligodeoxynucleotides (CpG ODN).
as §1

KCM tumor = experiment: in vivo anti-tumor activity against established KCM tumor; design: species or system mouse
Method: FIG. 5A is a line graph showing the measured tumor volumes (in mm measured by digital calipers) in mice treated with phosphate-buffered saline (PBS) alone (negative control; filled squares), CpG ODN alone (X's), the unconjugated TAB-004 antibody (open circles), or the TAB-004-CpG ODN conjugate (filled circles). FIG. 5B is a bar graph showing the changes in tumor volumes in mice at 19 and 27 days after the final treatment was administered. […] PBS alone (negative control; white bars); CpG ODN alone (hatched bars); unconjugated TAB-004 antibody (black bars); TAB-004-CpG ODN conjugate (cross-hatched bars). […] The treatment groups and the schedule and dose were as illustrated in FIGS. 5A and 5B. Briefly, 3×10^6 KCM tumor cells were administered subcutaneously into the flank region of mice (n=10 mice) at day 0. At days 4, 10, and 16, 50 μg of a TAB-004-CpG ODN conjugate were administered intratumorally (without adjuvant) to each mouse. The same amounts of antibody were administered to an antibody alone group (unconjugated TAB-004) for comparison. Mice were sacrificed at day 20 and tumors recovered.

[1] = physical properties of MSN materials (DLS, zeta-potential, TGA, TEM); format: physicochemical
Text: The MSN conjugates were characterized by dynamic light scattering (DLS), thermogravimetric analysis (TGA), and transmission electron microscopy (TEM). […] DLS results indicated slight aggregation. The surface charges were as expected during the different synthesis steps, with the final TAB-004-MSN neutral surface charge indicating successful functionalization of MSN. The PEG linker was quantified by TGA to be about 6-7% by weight.

T1 sequence (P15941 24-1255): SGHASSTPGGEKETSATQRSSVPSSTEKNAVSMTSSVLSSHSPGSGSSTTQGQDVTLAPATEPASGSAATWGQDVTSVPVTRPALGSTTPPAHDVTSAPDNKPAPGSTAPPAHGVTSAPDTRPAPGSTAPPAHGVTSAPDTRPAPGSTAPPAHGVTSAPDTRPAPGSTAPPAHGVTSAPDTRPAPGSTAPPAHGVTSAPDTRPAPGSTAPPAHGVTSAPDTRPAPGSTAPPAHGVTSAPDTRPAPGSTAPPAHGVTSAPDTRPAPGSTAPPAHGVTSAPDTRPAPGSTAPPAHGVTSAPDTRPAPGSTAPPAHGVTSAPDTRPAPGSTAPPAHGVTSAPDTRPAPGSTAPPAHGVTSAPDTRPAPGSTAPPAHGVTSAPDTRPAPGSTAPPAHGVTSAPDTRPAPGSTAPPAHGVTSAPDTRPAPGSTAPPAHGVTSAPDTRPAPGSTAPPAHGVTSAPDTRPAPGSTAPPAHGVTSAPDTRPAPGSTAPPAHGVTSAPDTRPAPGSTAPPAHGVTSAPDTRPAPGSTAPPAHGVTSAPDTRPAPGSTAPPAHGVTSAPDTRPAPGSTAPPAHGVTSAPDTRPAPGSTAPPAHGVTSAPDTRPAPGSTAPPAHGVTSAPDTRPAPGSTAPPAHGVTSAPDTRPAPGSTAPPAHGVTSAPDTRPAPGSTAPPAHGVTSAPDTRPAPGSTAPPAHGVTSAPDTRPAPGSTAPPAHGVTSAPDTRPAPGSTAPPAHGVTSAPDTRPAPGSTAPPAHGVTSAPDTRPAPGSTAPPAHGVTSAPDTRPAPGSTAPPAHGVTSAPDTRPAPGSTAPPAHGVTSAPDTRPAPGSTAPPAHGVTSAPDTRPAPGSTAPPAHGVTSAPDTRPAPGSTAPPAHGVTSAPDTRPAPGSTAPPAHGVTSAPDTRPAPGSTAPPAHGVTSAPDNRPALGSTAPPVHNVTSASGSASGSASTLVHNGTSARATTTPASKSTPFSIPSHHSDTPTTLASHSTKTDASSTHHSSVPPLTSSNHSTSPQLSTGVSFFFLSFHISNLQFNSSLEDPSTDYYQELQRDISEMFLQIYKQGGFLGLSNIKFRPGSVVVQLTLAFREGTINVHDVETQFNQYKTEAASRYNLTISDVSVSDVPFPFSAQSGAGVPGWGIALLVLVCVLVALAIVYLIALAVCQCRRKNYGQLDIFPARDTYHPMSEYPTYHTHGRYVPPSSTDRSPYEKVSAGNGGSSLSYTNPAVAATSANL

B1: Humanized HC3 + LC2: heavy chain H6247, light chain L6246 (antibody)
heavy: EVQLVQSGAEVKKPGASVKVSCKASGYTFTNYWMHWVRQAPGQGLEWMGYINPSSGYTQYNQKFQGWVTMTADTSISTAYMELSRLRSDDTAVYYCSTYYGDYLFPYWGQGTLVTVSSASTKGPSVFPLAPCSRSTSESTAALGCLVKDYFPEPVTVSWNSGALTSGVHTFPAVLQSSGLYSLSSVVTVPSSNFGTQTYTCNVDHKPSNTKVDKTVERKCCVECPPCPAPPVAGPSVFLFPPKPKDTLMISRTPEVTCVVVDVSHEDPEVQFNWYVDGVEVHNAKTKPREEQFNSTFRVVSVLTVVHQDWLNGKEYKCKVSNKGLPAPIEKTISKTKGQPREPQVYTLPPSREEMTKNQVSLTCLVKGFYPSDIAVEWESNGQPENNYKTTPPMLDSDGSFFLYSKLTVDKSRWQQGNVFSCSVMHEALHNHYTQKSLSLSPG
light: DVVMTQSPLSLPVTLGQPASISCRSSQDIVYGNGNTYLEWYQQRPGQSPRLLIYKVSNRFSGVPDRFSGSGSGTDFTLKISRVEAEDVGVYYCFQGSHVPYTFGQGTKLEIKRTVAAPSVFIFPPSDEQLKSGTASVVCLLNNFYPREAKVQWKVDNALQSGNSQESVTEQDSKDSTYSLSSTLTLSKADYEKHKVYACEVTHQGLSSPVTKSFNRGEC
Q: With B1 as the molecule, how does the “binding by ELISA” value (KCM lysate) read?
A: The value was “retained binding similar to the chimeric parental antibody”.

B2: Humanized HC3 + LC3: heavy chain H6247, light chain L6247 (antibody)
heavy: EVQLVQSGAEVKKPGASVKVSCKASGYTFTNYWMHWVRQAPGQGLEWMGYINPSSGYTQYNQKFQGWVTMTADTSISTAYMELSRLRSDDTAVYYCSTYYGDYLFPYWGQGTLVTVSSASTKGPSVFPLAPCSRSTSESTAALGCLVKDYFPEPVTVSWNSGALTSGVHTFPAVLQSSGLYSLSSVVTVPSSNFGTQTYTCNVDHKPSNTKVDKTVERKCCVECPPCPAPPVAGPSVFLFPPKPKDTLMISRTPEVTCVVVDVSHEDPEVQFNWYVDGVEVHNAKTKPREEQFNSTFRVVSVLTVVHQDWLNGKEYKCKVSNKGLPAPIEKTISKTKGQPREPQVYTLPPSREEMTKNQVSLTCLVKGFYPSDIAVEWESNGQPENNYKTTPPMLDSDGSFFLYSKLTVDKSRWQQGNVFSCSVMHEALHNHYTQKSLSLSPG
light: DIVLTQSPLSLPVTLGQPASISCRSSQDIVYGNGNTYLEWYQQRPGQSPRLLIYKVSNRFSGVPDSFSGSGSGTDFTLTISRVEAEDVGIYYCFQGSHVPYTFGEGTKLEIKRTVAAPSVFIFPPSDEQLKSGTASVVCLLNNFYPREAKVQWKVDNALQSGNSQESVTEQDSKDSTYSLSSTLTLSKADYEKHKVYACEVTHQGLSSPVTKSFNRGEC
Q: For B2, which “binding by ELISA” value (KCM lysate) is on record?
A: The value was “retained binding similar to the chimeric parental antibody”.

B3: TAB-004-CpG ODN conjugate (conjugate)
VH: EVQLQQSGGERATPGASVKMSCKTSGYTFTNYWMHWVKQRPGQGLEWIGYINPSSGYTQYNQKFKDKATLTADKSSSTAYIQLSSLTSEDSAVYYCSTYYGDYLFPYWGQGTLVTVSA
VL: DVLMTQTPLSLPVSLGDQASISCRSSQDIVYGNGNTYLEWYLQKPGQSPKLLIYKVSNRFSGVPDRFSGSGSGTDFTLKISRVEAEDLGVYYCFQGSHVPYTFGGGTKLEIKR
Q: With B3 as the molecule, how does the “specific lysis of tumor cells by NK cells” value (KCM tumor cells) read?
A: Its value is “further enhanced specific lysis of tumor cells”.

Q: And the “binding to KCM cell line” value (KCM pancreatic cell line)?
A: Its value is “bound to the KCM pancreatic cell line with equal affinity”.

Q: And the “growth of established tumor” value (KCM tumor; 50 μg intratumorally at days 4, 10, and 16)?
A: Its value is “completely stopped the growth of an established tumor leading to complete eradication”.

Q: And the “tumor volumes at 19 and 27 days post-treatment” value (KCM tumor; compared to control mice)?
A: The value was “had not increased”.

Q: What about the “tumor regrowth after cessation of treatment” value (KCM tumor; mouse, in vivo) of the same molecule?
A: Its value is “did not grow back the tumors”.

B4: TAB-004-MSN (conjugate)
VH: EVQLQQSGGERATPGASVKMSCKTSGYTFTNYWMHWVKQRPGQGLEWIGYINPSSGYTQYNQKFKDKATLTADKSSSTAYIQLSSLTSEDSAVYYCSTYYGDYLFPYWGQGTLVTVSA
VL: DVLMTQTPLSLPVSLGDQASISCRSSQDIVYGNGNTYLEWYLQKPGQSPKLLIYKVSNRFSGVPDRFSGSGSGTDFTLKISRVEAEDLGVYYCFQGSHVPYTFGGGTKLEIKR
Q: With B4 as the molecule, how does the PDI [1] read?
A: The PDI was 0.35.

Q: And the “Size (nm)” value ([1]; determined in 1 mM PBS, pH 7.4)?
A: The value was 342.0 nm.

Q: And the “Zeta-potential (mV)” value ([1]; determined in 1 mM PBS, pH 7.4)?
A: Its value is −5.6 ± 0.8 mV.
